The text below walks through data of paper PMC6314816 (Journal of the American Chemical Society, 2018).

What all share (test): spectrophotometric NADPH oxidation, initial rates
Common to all, as to format: biochemical, Thermocrispum municipale
Holding throughout (conditions): NADPH co-substrate

For data set [1], the system named is CC(=O)CCc1ccccc1.
Data set [2] has as its system CC(=O)Cc1ccccc1.
Substrate in data set [3]: CC(=O)CCc1ccccc1
This is another data set of the same source.

Substrate in data set [4]: CC(=O)Cc1ccccc1
The source holds these as a separate data set.

One may read the Km as the concentration of substrate that gives half-maximal velocity. What is called kcat is the number of substrate molecules converted per active site and unit of time at saturation.

Take “TmCHMO (Thermocrispum municipale; F434G/L145G/L437T/T435F)”: in data set [1], the Km was 24 ± 4.1 µM and the kcat was found to be 0.16 ± 0.0028 s⁻¹.
Take “TmCHMO (Thermocrispum municipale; L437A/W492Y)”: in data set [2], the Km was determined as 1500 ± 460 µM and the kcat was determined as 0.16 ± 0.014 s⁻¹.

B1: TmCHMO (Thermocrispum municipale) (protein)
chain: MSTTQTPDLDAIVIGAGFGGIYMLHKLRNDLGLSVRVFEKGGGVGGTWYWNKYPGAKSDTEGFVYRYSFDKELLREYDWTTRYLDQPDVLAYLEHVVERYDLARDIQLNTEVTDAIFDEETELWRVTTAGGETLTARFLVTALGLLSRSNIPDIPGRDSFAGRLVHTNAWPEDLDITGKRVGVIGTGSTGTQFIVAAAKMAEQLTVFQRTPQYCVPSGNGPMDPDEVARIKQNFDSIWDQVRSSTVAFGFEESTVEAMSVSESERQRVFQQAWDKGNGFRFMFGTFCDIATNPEANAAAAAFIRSKIAEIVKDPETARKLTPTDLYAKRPLCNEGYYETYNRDNVSLVSLKETPIEEIVPQGVRTSDGVVHELDVLVFATGFDAVDGNYRAMNLRGRDGRHINEHWTEGPTSYLGVTKAGFPNMFMILGPNGPFTNLPPSIEAQVEWISDLIDKATREGLTTVEPTADAEREWTETCAEIANMTLFPKADSWIFGANIPGKRHAVMFYLGGLGNYRRQLADVADGGYRGFQLRGERAQAVA
Regarding B1, in data set [3], the Km was 12000 ± 7000 µM and the kcat came to 0.31 ± 0.11 s⁻¹. In data set [4], the Km was 860 ± 60 µM and the kcat was found to be 0.73 ± 0.014 s⁻¹.
